Columns and labels:
[1] = Polymer MEMS DSC measurement of lysozyme unfolding (Example 6); format: physicochemical; details: 0.1 M Glycine-HCL buffer pH 2.5; scan 5 K/min; all concentrations except 1 mg/mL
Description: The sample solutions and buffer were degassed overnight in a vacuum chamber built in-house, metered with Micropipettes, and introduced by a syringe pump (New Era Pump Systems, Inc., NE-1000) before the DSC measurements.
Before DSC measurements, the baseline, i.e., the thermopile output voltage in the absence of a differential power input, during temperature scanning in the range of interest was recorded with both calorimetric channels filled with buffer solutions. After which, characterizations of biomolecules were performed with the calorimetric channels, respectively filled with a biological sample and a buffer solutions, and scanned in the same range with pre-specified rate. The temperature sensors were used to monitor the temperatures of calorimetric channels, while the device output was obtained in real time to compute the biomolecular thermal power.
The calibrated polymer MEMS DSC device was then exploited to characterize protein unfolding. […]
The thermopile differential voltage as a function of temperature, corrected by baseline subtraction, was measured at varying concentrations ranging from 1 to 20 mg/mL (FIG. 42). […] Furthermore, the differential heat capacity as a function of temperature and the calibrated device sensitivity can be calculated from the device voltage output by Equation 7. The sample heat capacity as a function of temperature was determined by: […]

[2] = cited from earlier work
[3] = MEMS DSC measurement of lysozyme unfolding (Example 2); format: physicochemical; details: 0.1 M Glycine-HCl buffer pH 2.5; 1 to 20 mg/mL; scan 25-75° C. at 5° C./min
Description: DSC measurements of biomolecules were performed using the calibrated microdevice, whose sample chamber and reference chamber were respectively filled with biological sample and buffer solutions, scanned in a range of temperature of interest. The temperature sensors were used to monitor the temperatures of calorimetric chambers while the device output was obtained in real time to compute the biomolecular thermal power. Before DSC measurements, the baseline in device output, i.e., the thermopile output voltage in the absence of a differential power input, during temperature scanning was measured with both calorimetric chambers filled with buffer solutions. […]
The thermopile output voltage as a function of temperature, corrected by baseline subtraction, was measured at varying protein concentrations ranging from 1 to 20 mg/mL (FIG. 10).
Despite the amplitude difference of device output at various protein concentrations, they all yielded consistent estimates of the thermodynamic properties associated with the protein unfolding process. In particular, the profile shape of c was generally not influenced by protein concentration, and ΔH was consistently determined to be approximately 450 kJ/mol with a corresponding melting temperature Tm of approximately 55° C.

[4] = MEMS AC-DSC measurement of lysozyme unfolding (Example 3); format: physicochemical; details: 10 and 20 mg/mL in 0.1 M Glycine-HCl pH 2.5, 5° C./min, modulation 1, 5 or 10 Hz
Description: The microdevice was also placed in a thermal enclosure built in-house. […] The AC-DSC measurement was fully automated through a Lab VIEW program.
The MEMS AC-DSC device calibrated above was used to measure the thermal behavior of protein unfolding.
Meanwhile, the specific heat capacity (c) of the protein as a function of temperature can be computed from the thermopile voltage amplitude (FIG. 19).

For “lysozyme: targeted sample biomolecule, purchased from Sigma Aldrich (lyophilized powder, protein ≥90%), used for protein unfolding DSC”, the “melting temperature Tm” value [1] is listed as 54.71 °C, the “total enthalpy change per mole of lysozome (ΔH)” value [1] is listed as 101 kcal/mol and the “Tm of lysozyme, published data” value [2] is listed as 55-58.9 °C. For the same substance, the “ΔH of lysozyme unfolding, published data” value [2] was 90.1 to 105 kcal/mol, the “melting temperature Tm” value [3] was “approximately 55 °C” and the “total change of molar enthalpy (ΔH) of lysozyme unfolding” value [3] was “approximately 450 kJ/mol”. The “apparent melting temperature (Tm)” value [4] was 55-58 °C.
